Results published in patent publication CN105384819A (UNIV CHINA PHARMA, dated 2016).

Biological target: T1, rhDLL4(重组人DLL4) (human, UniProt Q9NR61 27-524, limits assumed)
T1 construct: Immobilised on a CM5 chip for SPR and coated on 96-well plates for the MTT assay; also called 人DLL4抗原; DLL4抗原
Assay: SPR, Biacore X100, rhDLL4 immobilised on CM5 chip, antibody injected at 0.098-12.5 nM

T1 sequence (Q9NR61 27-524 limits assumed): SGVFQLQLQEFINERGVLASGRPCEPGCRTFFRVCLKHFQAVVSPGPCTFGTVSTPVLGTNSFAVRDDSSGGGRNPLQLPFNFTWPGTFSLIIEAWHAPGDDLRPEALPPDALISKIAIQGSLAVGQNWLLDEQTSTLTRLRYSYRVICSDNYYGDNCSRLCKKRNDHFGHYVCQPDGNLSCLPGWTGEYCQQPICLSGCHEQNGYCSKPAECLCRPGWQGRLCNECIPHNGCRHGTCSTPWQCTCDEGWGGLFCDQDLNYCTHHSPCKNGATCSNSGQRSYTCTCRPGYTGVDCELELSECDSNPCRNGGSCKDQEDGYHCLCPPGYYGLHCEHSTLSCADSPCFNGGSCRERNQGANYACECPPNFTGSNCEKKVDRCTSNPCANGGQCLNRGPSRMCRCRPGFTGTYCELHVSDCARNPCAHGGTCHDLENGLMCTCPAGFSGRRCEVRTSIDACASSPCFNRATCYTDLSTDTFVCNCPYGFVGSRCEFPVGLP

Kd: 2.26 pM
B1: 抗人DLL4人源化抗体H3L2 (antibody, human IgG1, lambda, V domains shown)
VH: QVQLVQSGAEVKKPGSSVKVSCKASGYTFSGYWMQWIKQAPGQGLEWIGAIYPGDGDTRYTQKFKGRATLTADKSTSTAYMELSSLRSEDTAVYYCAGGNFFFDYWGQGTLVTVSS
VL: EIVITQSPDFQSVTPKEKVTITCSVSSSISSSYLHWYQQKPDQSPKPWIYGTSNLASGVPSRFSGSGSGTDYTLTINSLEAEDAATYYCQQWSSSPLTFGQGTKLEIKV
notes: also called 抗DLL4人源化抗体
